The results in this text go back to patent publication US20100333236A1.

“And” between values parts separate entries of the source, which are not always exact repeats. Equal values may be shown once. Read-outs that look alike come from different tables or passages of the source.

Holding throughout (assay): cell-based or functional assay
Test [1] has as its target cysteine-like cathepsin-B protease activities from extracts of adults of Acyrthosiphon pisum (pea aphid) (Acyrthosiphon pisum).
The target of test [2] is cysteine-like cathepsin-L protease activities from extracts of adults of Tetranychus urticae (spider mites) (Tetranychus urticae).
Test [3] addresses cysteine-like cathepsin-B protease activities from Leptinotarsa decemlineata (Colorado potato beetle) gut extracts (Leptinotarsa decemlineata).
Test [4] deals with cysteine-like cathepsin-L protease activities from Leptinotarsa decemlineata (Colorado potato beetle) gut extracts (Leptinotarsa decemlineata).
Test [5] concerns the target cysteine-like cathepsin-L protease activities from extracts of adults of Acyrthosiphon pisum (pea aphid) (Acyrthosiphon pisum).
For test [6], the target named is cysteine-like cathepsin-L protease activities from extracts of adults of Bemisia tabaci (sweetpotato whitefly) (Bemisia tabaci).
The target in test [7] is cysteine-like cathepsin-L protease activities from extracts of adults of Tribolium castaneum (red flour beetle) (Tribolium castaneum).
The target in test [8] is serine-like chymotrypsin protease activities from Sesamia nonagrioides (Mediterranean corn borer) larval gut extracts (Sesamia nonagrioides).
For test [9], the target named is serine-like chymotrypsin protease activities from Spodoptera littoralis (cotton leafworm) larval gut extracts (Spodoptera littoralis).
Test [10] deals with serine-like elastase protease activities from Ostrinia nubilalis (European corn borer) larval gut extracts (Ostrinia nubilalis).
Test [11] addresses serine-like trypsin protease activities from Ostrinia nubilalis (European corn borer) larval gut extracts (Ostrinia nubilalis).
Test [12] concerns the target serine-like trypsin protease activities from Spodoptera littoralis (cotton leafworm) larval gut extracts (Spodoptera littoralis).
The target of test [13] is serine-like trypsin protease activities from Sesamia nonagrioides (Mediterranean corn borer) larval gut extracts (Sesamia nonagrioides).
Test [14] deals with cysteine-like cathepsin-B protease activities from Leptinotarsa decemlineata (Colorado potato beetle) gut extracts (Leptinotarsa decemlineata). The source holds these as a separate data set.
Test [15] concerns the target cysteine-like cathepsin-B protease activities from extracts of adults of Acyrthosiphon pisum (pea aphid) (Acyrthosiphon pisum). This is another data set of the same source.
The target in test [16] is cysteine-like cathepsin-L protease activities from Leptinotarsa decemlineata (Colorado potato beetle) gut extracts (Leptinotarsa decemlineata). The source holds these as a separate data set.
The target in test [17] is cysteine-like cathepsin-L protease activities from extracts of adults of Acyrthosiphon pisum (pea aphid) (Acyrthosiphon pisum). This is another data set of the same source.
The target of test [18] is cysteine-like cathepsin-L protease activities from extracts of adults of Bemisia tabaci (sweetpotato whitefly) (Bemisia tabaci). The source holds these as a separate data set.
Test [19] concerns the target cysteine-like cathepsin-L protease activities from extracts of adults of Tetranychus urticae (spider mites) (Tetranychus urticae). The source holds these as a separate data set.
Test [20] deals with cysteine-like cathepsin-L protease activities from extracts of adults of Tribolium castaneum (red flour beetle) (Tribolium castaneum). The source holds these as a separate data set.
Test [21] concerns the target serine-like chymotrypsin protease activities from Spodoptera littoralis (cotton leafworm) larval gut extracts (Spodoptera littoralis). The source holds these as a separate data set.
The target in test [22] is serine-like trypsin protease activities from Ostrinia nubilalis (European corn borer) larval gut extracts (Ostrinia nubilalis). This is another data set of the same source.
Test [23] deals with serine-like trypsin protease activities from Sesamia nonagrioides (Mediterranean corn borer) larval gut extracts (Sesamia nonagrioides). The source holds these as a separate data set.
Test [24] deals with serine-like trypsin protease activities from Spodoptera littoralis (cotton leafworm) larval gut extracts (Spodoptera littoralis). This is another data set of the same source.

Take “AtSerpin1 mutant WRHR (SEQ ID NO:6) (from UniProt Q9S7T8 1-391)”: the % Inhibition, Cathepsin-B, 1.25 µM serpin in test [1] worked out at 26%. The molecule also registered a % Inhibition, Cathepsin-L, 1.25 µM serpin in test [2] of 8%.
In [3], “AtSerpin1 mutant IKLA (SEQ ID NO:3) (from UniProt Q9S7T8 1-391)” yielded a % Inhibition, Cathepsin-B, 1.25 µM serpin of 62%; a % Inhibition, Cathepsin-B, 5 µM serpin of 77%; a % Inhibition, Cathepsin-B, 10 µM serpin of 70%. In test [1], this molecule yielded a % Inhibition, Cathepsin-B, 1.25 µM serpin of 24%; a % Inhibition, Cathepsin-B, 5 µM serpin of 31%; a % Inhibition, Cathepsin-B, 10 µM serpin of 36%. In [4], this molecule came in with a % Inhibition, Cathepsin-L, 1.25 µM serpin of 18%; a % Inhibition, Cathepsin-L, 5 µM serpin of 44%; a % Inhibition, Cathepsin-L, 10 µM serpin of 66%. In [5], this molecule yielded a % Inhibition, Cathepsin-L, 1.25 µM serpin of 24%; a % Inhibition, Cathepsin-L, 5 µM serpin of 34%; a % Inhibition, Cathepsin-L, 10 µM serpin of 45%. Moreover, in test [6], the % Inhibition, Cathepsin-L, 0.16 µM serpin stood at 3%; the % Inhibition, Cathepsin-L, 0.31 µM serpin was 10%; the % Inhibition, Cathepsin-L, 0.63 µM serpin stood at 15%; the % Inhibition, Cathepsin-L, 1.25 µM serpin was found to be 27%. In test [6], this molecule yielded a % Inhibition, Cathepsin-L, 2.5 µM serpin of 38%; a % Inhibition, Cathepsin-L, 5 µM serpin of 48%; a % Inhibition, Cathepsin-L, 10 µM serpin of 60%; a % Inhibition, Cathepsin-L, 20 µM serpin of 70%. Besides, in test [6], the IC50 of cathepsin-L activity inhibition (FIG. 6) turned out to be 5 µM; the fold activity against AtSerpin1, cathepsin-L inhibition (FIG. 6) was 5 times and 10 times. In [2], this molecule came in with a % Inhibition, Cathepsin-L, 0.02 µM serpin of 9%; a % Inhibition, Cathepsin-L, 0.04 µM serpin of 11%; a % Inhibition, Cathepsin-L, 0.08 µM serpin of 12%; a % Inhibition, Cathepsin-L, 0.16 µM serpin of 22%. Besides, in test [2], the % Inhibition, Cathepsin-L, 0.31 µM serpin was 33%; the % Inhibition, Cathepsin-L, 0.63 µM serpin turned out to be 44%; the % Inhibition, Cathepsin-L, 1.25 µM serpin was determined as 51%; the % Inhibition, Cathepsin-L, 2.5 µM serpin stood at 59%. In [2], the % Inhibition, Cathepsin-L, 5 µM serpin was 71%; the % Inhibition, Cathepsin-L, 10 µM serpin turned out to be 75%; the % Inhibition, Cathepsin-L, 20 µM serpin amounted to 79%; the IC50 of cathepsin-L activity inhibition (FIG. 7) was < 1 µM. Besides, the fold activity against AtSerpin1, cathepsin-L inhibition (FIG. 7) in test [2] is 2 times and 3 times. Further, in [7], the % Inhibition, Cathepsin-L, 0.08 µM serpin stood at 12%; the % Inhibition, Cathepsin-L, 0.16 µM serpin was 32%; the % Inhibition, Cathepsin-L, 0.31 µM serpin amounted to 57%; the % Inhibition, Cathepsin-L, 0.63 µM serpin amounted to 63%. Further, in test [7], the % Inhibition, Cathepsin-L, 1.25 µM serpin turned out to be 68%; the % Inhibition, Cathepsin-L, 2.5 µM serpin was 68%; the % Inhibition, Cathepsin-L, 5 µM serpin stood at 72%; the % Inhibition, Cathepsin-L, 10 µM serpin was found to be 70%. Further, in [7], the % Inhibition, Cathepsin-L, 20 µM serpin is 76%; the IC50 of cathepsin-L activity inhibition (FIG. 4) fell in the range of 0.2 to 0.3 µM; the fold activity against AtSerpin1, cathepsin-L inhibition (FIG. 4) was > 10 times. Further, in test [8], the % Inhibition, Chymotrypsin, 5 µM serpin was 32% and the % Inhibition, Chymotrypsin, 10 µM serpin was found to be 70%. In [9], this molecule registered a % Inhibition, Chymotrypsin, 1.25 µM serpin of 11%; a % Inhibition, Chymotrypsin, 5 µM serpin of 41%; a % Inhibition, Chymotrypsin, 10 µM serpin of 56%. The molecule also registered a % Inhibition, Elastase, 2 µM serpin in [10] of 21%. The % Inhibition, Trypsin, 2 µM serpin in test [11] came out at 51%. In test [12], this molecule gave a % Inhibition, Trypsin, 1.25 µM serpin of 18%; a % Inhibition, Trypsin, 5 µM serpin of 32%; a % Inhibition, Trypsin, 10 µM serpin of 40%.
On to “AtSerpin1 mutant IKLK (SEQ ID NO:7) (from UniProt Q9S7T8 1-391)”, for which, in test [1], the % Inhibition, Cathepsin-B, 5 µM serpin was 49% and the % Inhibition, Cathepsin-B, 10 µM serpin turned out to be 66%. In test [12], this molecule gave a % Inhibition, Trypsin, 5 µM serpin of 64% and a % Inhibition, Trypsin, 10 µM serpin of 69%.
In test [1], “AtSerpin1 mutant IRPR (SEQ ID NO:5) (from UniProt Q9S7T8 1-391)” registered a % Inhibition, Cathepsin-B, 1.25 µM serpin of 32%. Moreover, the % Inhibition, Cathepsin-L, 1.25 µM serpin was found to be 31% in test [5], 11% in test [2] and 73% in [7]. In test [13], this molecule returned a % Inhibition, Trypsin, 1.25 µM serpin of 38%.
Take “AtSerpin1 mutant VRPR (SEQ ID NO:4) (from UniProt Q9S7T8 1-391)”: in [1], the % Inhibition, Cathepsin-B, 1.25 µM serpin was determined as 27%; the % Inhibition, Cathepsin-B, 5 µM serpin came to 14%; the % Inhibition, Cathepsin-B, 10 µM serpin turned out to be 23%. The molecule further gave a % Inhibition, Cathepsin-L, 1.25 µM serpin in test [5] of 16%. In [2], the % Inhibition, Cathepsin-L, 1.25 µM serpin was found to be 22%. In [7], this molecule gave a % Inhibition, Cathepsin-L, 1.25 µM serpin of 38%. Besides, in test [12], the % Inhibition, Trypsin, 5 µM serpin turned out to be 33% and the % Inhibition, Trypsin, 10 µM serpin is 34%.

B1: AtSerpin1 (wild-type Serpin1 from Arabidopsis thaliana, At1g47710), recombinant HIS6-tagged (protein, not shown: small tags and cut ends)
chain: MDVRESISLQNQVSMNLAKHVITTVSQNSNVIFSPASINVVLSIIAAGSAGATKDQILSFLKFSSTDQLNSFSSEIVSAVLADGSANGGPKLSVANGAWIDKSLSFKPSFKQLLEDSYKAASNQADFQSKAVEVIAEVNSWAEKETNGLITEVLPEGSADSMTKLIFANALYFKGTWNEKFDESLTQEGEFHLLDGNKVTAPFMTSKKKQYVSAYDGFKVLGLPYLQGQDKRQFSMYFYLPDANNGLSDLLDKIVSTPGFLDNHIPRRQVKVREFKIPKFKFSFGFDASNVLKGLGLTSPFSGEEGLTEMVESPEMGKNLCVSNIFHKACIEVNEEGTEAAAASAGVIKLRGLLMEEDEIDFVADHPFLLVVTENITGVVLFIGQVVDPLH
For B1, in test [14], the % Inhibition, Cathepsin-B, 1.25 µM serpin was determined as 40%; the % Inhibition, Cathepsin-B, 5 µM serpin was 47%; the % Inhibition, Cathepsin-B, 10 µM serpin is 46%; the concentration for 50% inhibition of cathepsin-B activity (FIG. 3) was > 10 µM. Moreover, in test [15], the % Inhibition, Cathepsin-B, 1.25 µM serpin amounted to 50%; the % Inhibition, Cathepsin-B, 5 µM serpin worked out at 55%; the % Inhibition, Cathepsin-B, 10 µM serpin came to 55%; the concentration for 50% inhibition of cathepsin-B activity (FIG. 5) came to 1 µM. Besides, in test [16], the % Inhibition, Cathepsin-L, 1.25 µM serpin stood at 4%; the % Inhibition, Cathepsin-L, 5 µM serpin was found to be 34%; the % Inhibition, Cathepsin-L, 10 µM serpin is 48%; the concentration for 50% inhibition of cathepsin-L activity (fluorometric substrates, FIG. 3) amounted to 10 µM. In test [17], this molecule showed a % Inhibition, Cathepsin-L, 1.25 µM serpin of 42%; a % Inhibition, Cathepsin-L, 5 µM serpin of 42%; a % Inhibition, Cathepsin-L, 10 µM serpin of 39%; an inhibition of cathepsin-L activity, plateau (FIG. 5) of 40%. In test [18], this molecule came in with a % Inhibition, Cathepsin-L, 2.5 µM serpin of 7%; a % Inhibition, Cathepsin-L, 5 µM serpin of 20%; a % Inhibition, Cathepsin-L, 10 µM serpin of 34%; a % Inhibition, Cathepsin-L, 20 µM serpin of 43%. Also, the % inhibition of cathepsin-L activity at 20 µM serpin (FIG. 6) in test [18] amounted to 45%. For the same molecule, in test [19], the % Inhibition, Cathepsin-L, 0.16 µM serpin is 10%; the % Inhibition, Cathepsin-L, 0.31 µM serpin worked out at 13%; the % Inhibition, Cathepsin-L, 0.63 µM serpin is 17%; the % Inhibition, Cathepsin-L, 1.25 µM serpin turned out to be 32%. In test [19], this molecule came in with a % Inhibition, Cathepsin-L, 2.5 µM serpin of 48%; a % Inhibition, Cathepsin-L, 5 µM serpin of 58%; a % Inhibition, Cathepsin-L, 10 µM serpin of 67%; a % Inhibition, Cathepsin-L, 20 µM serpin of 73%. Further, in test [19], the concentration for 50% inhibition of cathepsin-L activity (FIG. 7) was 2 µM. In test [20], this molecule displayed a % Inhibition, Cathepsin-L, 2.5 µM serpin of 16%; a % Inhibition, Cathepsin-L, 5 µM serpin of 68%; a % Inhibition, Cathepsin-L, 10 µM serpin of 73%; a % Inhibition, Cathepsin-L, 20 µM serpin of 76%. The molecule further displayed an IC50 of cathepsin-L activity inhibition (FIG. 4) in [20] of 4 µM. Further, in test [21], the % Inhibition, Chymotrypsin, 1.25 µM serpin turned out to be 10%; the % Inhibition, Chymotrypsin, 5 µM serpin amounted to 31%; the % Inhibition, Chymotrypsin, 10 µM serpin stood at 40%; the concentration for 50% inhibition of chymotrypsin activity (FIG. 1) fell in the range of 10 to 20 µM. Also, in test [22], the % Inhibition, Trypsin, 2 µM serpin is 28%. In test [23], this molecule had a % Inhibition, Trypsin, 1.25 µM serpin of 90%; a % Inhibition, Trypsin, 5 µM serpin of 97%; a % Inhibition, Trypsin, 10 µM serpin of 98%; a concentration for 50% inhibition of trypsin activity (FIG. 2) of 0.1 µM. In test [24], the % Inhibition, Trypsin, 1.25 µM serpin was determined as 52%; the % Inhibition, Trypsin, 5 µM serpin was determined as 83%; the % Inhibition, Trypsin, 10 µM serpin was 90%; the concentration for 50% inhibition of trypsin activity (fluorometric substrate, FIG. 1) was 1 µM.
